These results are taken from article PMC3457981, “The Role, Interaction and Regulation of the Velvet Regulator VelB in Aspergillus nidulans”.

The target of this series is T1, GST-AbaA (Aspergillus nidulans, UniProt P20945 1-588).
T1 sequence: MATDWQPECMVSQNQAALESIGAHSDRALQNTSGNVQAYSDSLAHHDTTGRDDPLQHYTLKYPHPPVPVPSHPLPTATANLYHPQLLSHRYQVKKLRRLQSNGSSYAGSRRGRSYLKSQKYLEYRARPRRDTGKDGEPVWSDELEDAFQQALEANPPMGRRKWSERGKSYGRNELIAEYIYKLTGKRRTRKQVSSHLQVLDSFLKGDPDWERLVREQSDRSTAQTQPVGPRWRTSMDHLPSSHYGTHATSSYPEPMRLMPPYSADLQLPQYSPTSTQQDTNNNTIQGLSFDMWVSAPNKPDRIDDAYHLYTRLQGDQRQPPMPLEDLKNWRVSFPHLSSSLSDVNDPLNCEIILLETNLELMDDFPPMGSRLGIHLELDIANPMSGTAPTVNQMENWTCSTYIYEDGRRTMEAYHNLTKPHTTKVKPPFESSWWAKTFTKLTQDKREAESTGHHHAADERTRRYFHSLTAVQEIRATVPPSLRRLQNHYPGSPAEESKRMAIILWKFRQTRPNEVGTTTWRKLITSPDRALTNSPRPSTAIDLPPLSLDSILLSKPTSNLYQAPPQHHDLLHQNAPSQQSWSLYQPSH
As to the kind of experiment: EMSA; 6% glycerol, 12 mM HEPES-KOH pH 7.6, 4 mM Tris-HCl pH 8.0, 1 mM EDTA, 0.5 mM DTT, 0-12 ug poly(dI-dC), ~10 ng probe in 24 ul; RT, 20 min; 6% PAGE, TBE. Particulars: protein: recombinant; tags: N-terminal GST (pGEX-5X-1); label: 32P (5' end, T4 PNK); blunt. In general terms: In EMSA bound probe runs differently from free probe, usually more slowly.

B1: vosA EMSA probe 3 (dsDNA)
DNA 1: GTGGTTCCTTACCTCATTCCCGACCTTTTTTGCC
DNA 2: GGCAAAAAAGGTCGGGAATGAGGTAAGGAACCAC
In the case of B1, the binding result is “binds”.

B2: velB EMSA probe 2 (dsDNA)
DNA 1: AGCTCCAGCTCCATTCCGCACGGTCATTCCGTTCTCGGCG
DNA 2: CGCCGAGAACGGAATGACCGTGCGGAATGGAGCTGGAGCT
With B2, the binding result is listed as “binds”.

B3: velB EMSA probe 1 (dsDNA)
DNA 1: CAGCTCCATTCCGCACGGTCATTCC
DNA 2: GGAATGACCGTGCGGAATGGAGCTG
Consider B3, for which the binding result is recorded as “binds”.
